{"source": "patent EP1950300A2", "about": "(Genentech, Inc., dated 2008)", "binders": {"B1": {"name": "Y0241-6 (Fab, V domains shown)", "VH": "EVQLVESGGGLVQPGGSLRLSCAASGYDYTNYGMNWVRQAPGKGLEWVGWINTYTGEPTYAADFKRRFTFSLDTSKSTAYLQMNSLRAEDTAVYYCAKYPHYYGSSHWYFDVWGQGTL", "VL": "DIQLTQSPSSLSASVGDRVTITCRANEQLSNYLNWYQQKPGKAPKVLIYFTSSLHSGVPSRFSGSGSGTDFTLTISSLQPEDFATYYCQQYSTVPWTFGQGTKVEIKR", "notes": "Clone from library YC-86 built on pY0192, expressed as Fab"}, "B2": {"name": "Y0239-8 (Fab, V domains shown)", "VH": "EVQLVESGGGLVQPGGSLRLSCAASGYTFTNYGMNWVRQAPGKGLEWVGWINTYTGEPTYAADFKRRFTFSLDTSKSTAYLQMNSLRAEDTAVYYCAKYPHYYLRDGRSSHWYFDVWGQGTL", "VL": "B1 VL", "notes": "Clone from library YC-95 (G104 replaced by a random peptide) on pY0192; Expressed as Fab; The limits of the flanking pieces are my reading"}, "B3": {"name": "Y0239-9 (Fab, V domains shown)", "VH": "EVQLVESGGGLVQPGGSLRLSCAASGYTFTNYGMNWVRQAPGKGLEWVGWINTYTGEPTYAADFKRRFTFSLDTSKSTAYLQMNSLRAEDTAVYYCAKYPHYYLGESSHWYFDVWGQGTL", "VL": "B1 VL", "notes": "Clone from library YC-95 on pY0192; Expressed as Fab; The limits of the flanking pieces are my reading"}, "B4": {"name": "Y0239-19 (Fab, V domains shown)", "VH": "EVQLVESGGGLVQPGGSLRLSCAASGYTFTNYGMNWVRQAPGKGLEWVGWINTYTGEPTYAADFKRRFTFSLDTSKSTAYLQMNSLRAEDTAVYYCAKYPHYYVNERKSHWYFDVWGQGTL", "VL": "B1 VL", "notes": "Expressed as Fab; also called insertion variant Y0239-19; VNERK motif variant"}, "B5": {"name": "Y0242-1 (Fab, V domains shown)", "VH": "B1 VH with D28T, Y29F, Y54W", "VL": "B1 VL", "notes": "Clone from library YC-90; Expressed as Fab"}, "B6": {"name": "Y0240-1 (Fab, V domains shown)", "VH": "B4 VH with V104L, N105T, E106D, R107H", "VL": "B1 VL", "notes": "Clone from library YC-98 (G104 and S105 replaced by a random peptide) on pY0192; Expressed as Fab; The limits of the flanking pieces are my reading"}, "B7": {"name": "Y0261-6 (Fab, V domains shown)", "VH": "B4 VH with V104L, N105K, E106D, R107K", "VL": "B1 VL", "notes": "Clone from library YC-98 on pY0192; Expressed as Fab; The limits of the flanking pieces are my reading"}, "B8": {"name": "Y0239-12 (Fab, V domains shown)", "VH": "B4 VH with V104A, N105H, R107K", "VL": "B1 VL", "notes": "as for B7"}, "B9": {"name": "Y0241-7 (Fab, V domains shown)", "VH": "B1 VH with Y29W", "VL": "B1 VL", "notes": "Clone from library YC-86 built on pY0192, expressed as Fab; This is not written as a substitution"}, "B10": {"name": "Y0313-2 (Fab, V domains shown)", "VH": "B4 VH with T28D, N31H", "VL": "B1 VL", "notes": "Combines the CDR H3 insertion of Y0239-19 with T28D/N31H; Prepared as Fab; also called CDR combination variant Y0313-2; Insert-Fab Y0313-2"}, "B11": {"name": "Y0239-2 (Fab, V domains shown)", "VH": "B4 VH with V104K, E106D, R107K, K108S", "VL": "B1 VL", "notes": "as for B3"}}, "note": "Substitutions are numbered along the chain they refer to. Names may count otherwise.", "data": [{"target": "T1, VEGF(8-109) (UniProt P15692 214-315)", "T1 construct": "range 8-109; Covalently coupled to the BIACORE chip", "T1 sequence (looked up)": "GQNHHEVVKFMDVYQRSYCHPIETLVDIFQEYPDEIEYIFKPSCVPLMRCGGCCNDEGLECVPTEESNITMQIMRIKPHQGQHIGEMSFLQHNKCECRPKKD", "test": "SPR (BIACORE-2000), ratio against Y0192", "units": {"Kd(wt)/Kd(mut)": "fold"}, "values": [{"binder": "B1", "Kd(wt)/Kd(mut)": 1.1}, {"binder": "B2", "Kd(wt)/Kd(mut)": 5.8}, {"binder": "B3", "Kd(wt)/Kd(mut)": 6}, {"binder": "B4", "Kd(wt)/Kd(mut)": 9.7}, {"binder": "B5", "Kd(wt)/Kd(mut)": 1.6}, {"binder": "B6", "Kd(wt)/Kd(mut)": 5.8}, {"binder": "B7", "Kd(wt)/Kd(mut)": 5}, {"binder": "B8", "Kd(wt)/Kd(mut)": 4.8}, {"binder": "B9", "Kd(wt)/Kd(mut)": 1}, {"binder": "B10", "Kd(wt)/Kd(mut)": 8}, {"binder": "B11", "Kd(wt)/Kd(mut)": 0.6}]}, {"target": "T1, VEGF(8-109)", "test": "SPR (BIACORE-2000), Kd calculated as koff/kon", "units": {"Kd": "nM"}, "values": [{"binder": "B1", "Kd": 2.7}, {"binder": "B9", "Kd": 3}]}, {"target": "T1, VEGF(8-109)", "test": "SPR (BIACORE-2000), VEGF(8-109) coupled to the chip, Fab injected, 25 C", "units": {"koff": "s⁻¹", "kon": "M⁻¹ s⁻¹"}, "values": [{"binder": "B1", "koff": 0.000129, "kon": 47000}, {"binder": "B9", "koff": 0.000128, "kon": 46000}]}]}
